Reference: the nanobody polyreactivity screen of Harvey et al. (2022)

test: yeast display, Sf9 membrane polyspecificity reagent, FACS + sequencing; frameworks hold sequencing errors
Method in brief: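 A synthetic nanobody library was expressed on Saccharomyces cerevisiae BJ5465 by galactose induction for 36–48 hours. The library was stained for 1 hour at 4 °C with 10% biotinylated, detergent-solubilized Sf9 membrane reagent and enriched with streptavidin microbeads before FACS. Low and high (top ~1%) gates were set on anti-HA fluorescence for expression and streptavidin fluorescence for reagent binding, and each polyreactivity label reflects the gate of origin.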

Sequence	polyreactivity (PSR sort gate)
QVQLEESGGGLVQAGGSLRLSCAASGSIFNRYAMGWYRQAPGKEWELVAAISRSGGRTYYADSVKGRFTISRDNAKNTVYLQMNSLKPEDTAVYYCAADKYYRQHEYDYLGQGTQVTVSS	high polyreactivity
QVQLEESGGGLVQAGGSLRLSCAASGSIFPHYAMRWNRQAPGKERELVAAISRSGTSTYYADSVKGRFPISRDNAKNTVYLQMNSLKPEHTAVYYCNAYQVYTRTYGYWGQGTQVTVSS	high polyreactivity
QVQLEESGGGLVQAGGSLRLSCAASGSIFRKYAMVSYRQAPGKERELVAAIRSSGGSTYYADSVKGRFTISRDNANNTVYLQMNSLKPEDTAVYYCAARYYRPSRYDYWGQGTQVTVSS	high polyreactivity
QVQLEESGGGLVQAGGSLRLSCAASGSIFRRNVMGWYRQAPGKERELVAAISWSGDRTYYADSVKGRFTISRDNAKNTVYLQMNSLKPVGTAVYYCAAANASPRRYGQYDYWGQGTQVTVSS	high polyreactivity
QVQLEESGGGLVQAGGSLRLSCAASGSIFSPNAMGWYRQAPGKERELVAAIDTRDGTTYYADSVKGRFTISRDNAKNTVYLQMNSLKPEDTAVYYCAADQLVGERDYWGQGTQVTVSS	low polyreactivity
QVQLEESGGGLVQAGGSLRLSCAASGSIFSRNAMGLYRQAPGTERELVAVITRSGSTNYADSVKGRFTISRDNAKNTVYLQKKSLTPQDTAVYYCNADQDAYYLVSIATYDYWGQGTQVTVSS	low polyreactivity
QVQLEESGGGLVQAGGSLRLSCAASGSIFVTNVMGWYRQAPGKERELVAVINSGGRTYYADSVKGRFTISRDNAKNTVYLQMNSLKPEDTAVYYCAKDSWSSYPSLYPEFDYWGQGTQVTVSS	low polyreactivity
QVQLEESGGGLVQAGGSLRLSCAASGSIIWSYAMGWYRQAPGKERELVAVINWSGGSTYYADSVKGRFTISRDNAKNTVYLQMNSLKPEDTAVYYCNKDLGPTKRPFTFDYWGQGTQVTVSS	low polyreactivity
QVQLEESGGGLVQAGGSLRLSCAASGSISYYYGMGWYRQAPGKERELVAAISTRGGSTYYADSVKGRFTISRDNAKNTVYLQMNSLKPEDTAVYYCNKVYYKRFYYWGQGTQVTVSS	high polyreactivity
QVQLEESGGGLVQAGGSLRLSCAASGSIYTYTMGWYRQAPGKERELVAAISWNGGRTYYADSVKGRFTISRDNAKNTVYLQMNSLKPEDTAVYYCNAAISYSYGYWGQGTQVTVSS	high polyreactivity
QVQLEESGGGLVQAGGSLRLSCAASGSTFDRYGMGWYRQAHWKERELVAAINSGDITNYADSVKGRFTISRDNAKNTVYLQMNSLKPEDTAVYYCAATQSRYYSDDPYYYWGQGTQVTVSS	low polyreactivity
QVQLEESGGGLVQAGGSLRLSCAASGSTFKYYAMGWYRQAPGKERELVAAISWSGGSTYYADSVKGRFTISRDNAKNTVYLQMNRLKPEDTAVYYCNKLIYDEDEYWGQGTQVTVSS	high polyreactivity
QVQLEESGGGLVQAGGSLRLSCAASGSTFLRYAIGWYRQAPGKEMELVAAITASGGSTFYADSVKGRFTISRDYAKNTVYLQMNSLKPEDTPVYYCAADVSYIGKYSHDLWIYGYYYWGQGTQVTVSS	low polyreactivity
QVQLEESGGGLVQAGGSLRLSCAASGSTFSRYAMGWYRQAPGKERELVAAISSSGGGTYYADSVKGRFTISRDNAKNTVYLQMNSLKPEDTAVYYCAAKRVHGATGYWGQGTQVTVSS	high polyreactivity
QVQLEESGGGLVQAGGSLRLSCAASGSTFSSNVMGWYRQAPGKERELVAAITGSGSRTYYADSVKGRFTISRDNAKNTVYLQMNSLKPEDTAVYYCNTKGRSRETYGYDYWGQGTQVTVSS	high polyreactivity
QVQLEESGGGLVQAGGSLRLSCAASGSTFSYYAMGWYRQAPGKERELVAAITYSVGSTYYADSVKGRFTISRDNAKNTVYLQMNSLKPEDTAVYYCNKRYYYSRANYPYDYWGQGTQVTVSS	low polyreactivity

Sequence	polyreactivity (PSR sort gate)
QVQLEESGGGLVQAGGSLRLSCAASGSTFVYNPMGWYRQAPGKETELVAVITYRGGRTYSADSVKGRFTISRDYAKNSVYLQMNSLKPEDTAVYYCAKRVYGSKVRGYDYWGQGTQVTVSS	high polyreactivity
QVQLEESGGGLVQAGGSLRLSCAASGSTFYSYVMGWYRQAPGKERELVAAISSIGGSTYYADSVKGRFTISRDNAKNTVYLQMNSLKPEDTAVYYCAAEPPGSTYEGGYWGQGTQVTVSS	low polyreactivity
QVQLEESGGGLVQAGGSLRLSCAASGSTIDYYTMGWYRQAPGKERELVAAISSSGGSTYYADSVKGRFTISRDNAKNTVYLQMNSLKPEDTAVYYCNSDSWYPDHFSYYGPYDYWGQGTQVTVSS	low polyreactivity
QVQLEESGGGLVQAGGSLRLSCAASGSTIHSYAMGWYRHAPGKERELVAAITTTGTRTYYADSVKGRFTISRDNAKNTVYLQMNSLKPEDTAVYYCNAQRLQAHRTSRRYGFWGQGTQVTVSS	high polyreactivity
QVQLEESGGGLVQAGGSLRLSCAASGSTLNRYPMGWNRHATGKERELVATIRWSGGSTYYADSVKPRFTISRYNEKHTVDLQMNSLKAEDTAVYYCAPDRYYYRGRYYGYTREFDYWGQGTHVTVSS	high polyreactivity
QVQLEESGGGLVQAGGSLRLSCAASGSTYYYYAMGWYRQAPGKERELVAAISRSGITYYADSVKGRFTISRDNAKNTVYLQMNSLKPEDTAVYYCAAGRRFDQSMYYWGQGTQVTVSS	high polyreactivity
QVQLEESGGGLVQAGGSLRLSCAASGYTFSFYAMGWYRQAPGKERELVAAISRSGGSTYYADSVKGRFTISRDNAKNTVYLQMNSLKPEDTAVYYCAARWPGAYHEYGYWGQGTQVTVSS	high polyreactivity
QVQLEESGGGLVQAGGSLRLSCAAYGSIFRFYAMGRYRQAPGKERQFVASITGTGGSTYYADSVKGRFTISRDNAKNTVYLQMNSLKPEDTAVYYCAKTQYSFPRLGYDYWGQGTQVTVSS	high polyreactivity
QVQLEESGGGLVQAGGSLRLSCAAYGSIFYKNAMGWYRQAPGKERELVAAITYSGGSTYYADSVKGRFTISRDNAKKTVYLQMNSLKPEDTAVYYCAADIGVYGERREEEYDYWGQGTQVTVSS	low polyreactivity
QVQLEESGGGLVQAGGSLRLSCAPSGLTFGGNAMGWYRQAPGKERELVAAISSGGSTNYADSVKGRFTISRDNAKNTDFLNMNSLKPEDTAVYYCAARDRPGNYFTEYGYWGQGTQVTVSS	low polyreactivity
QVQLEESGGGLVQAGGSLRLSCASSGRIFQVNTMGWYRQAPGKESELVAAISASVGSTYYADSVKGRFTISRDNAKNTVYLQMNILKPEDTAVYYCAKSLGYSVVRTLSPTGFYYWGQGTQVTVSS	low polyreactivity
QVQLEESGGGLVQAGGSLRLSCSASGRIFIKYAMGWYRQAPGKEREFVAAISGRGGSTYYADSVKGRFTISRDNAKNTVYLQMNSLKPEDTAVYYWAKRFFSTGTAAGMYYWGQGTQVTVSS	high polyreactivity
QVQLEESGGGLVQAGGSLRLSFAASGRIFRRYAMGWYRQAPVKERELVAAISSRGGRTYYADSVKGRFTISRDNAKNTVYLQMNSLKPDDTAVYYCAAYYFFTDTYGPYEYWGQGTQVTVSS	high polyreactivity
QVQLEESGGGLVQAGGSLRLSSAASGYIFDWYAMGWYRQAPGKEREFVAAISGSDGSTYYADSVKGRFTISRDNAKNTVYLQMNSLKPVDTPVYYCAADPYYGDMEYWGQGTQVTVSS	low polyreactivity
QVQLEESGGGLVQAGGSLRLTCAASGRIFYRYAMGWYRQAPGKEREFVAAISGTGGSTYYADSVKGRFTISRDNAKNTVNLQMNSLKPEDTAVYYCAAVSYYSSGYDYWGQGTQVTVSS	high polyreactivity
